This test has as its target Treponema denticola superoxide reductase (Treponema denticola (strain ATCC 35405)). Description: SEC.

One may read the stoichiometry N as a count of units in the complex or per binding partner. “Treponema denticola superoxide reductase (enzyme)” showed a stoichiometry N of 2.

The record behind these values is article PMC3447989.
